Assay results taken from PMC9482650, “Quantitative fragmentomics allow affinity mapping of interactomes” (Nature Communications, 2022).

Tests used:
Test in all cases: holdup assay
Parameters in all cases: key: below the threshold = too weak to quantify, mostly under pKd 3.1 to 4
DLG1_3, Q12959 = target: DLG1_3, Q12959
PDZD7_3, Q9H5P4 = target: T1, PDZD7_3, Q9H5P4
T1 sequence (Q9H5P4 857-944, limits assumed, looked up): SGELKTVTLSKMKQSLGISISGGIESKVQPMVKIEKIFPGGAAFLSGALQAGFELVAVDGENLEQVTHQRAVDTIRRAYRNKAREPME

LAP2, Q96RT1 = target: LAP2, Q96RT1
Sequence of LAP2, Q96RT1 (Q96RT1 other isoform, or with tags, fused parts or gaps): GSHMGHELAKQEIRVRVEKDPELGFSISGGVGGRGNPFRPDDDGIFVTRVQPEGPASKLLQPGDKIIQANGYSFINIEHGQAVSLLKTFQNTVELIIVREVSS

APBA3_1, O96018 = target: T2, APBA3_1, O96018
T2 sequence (O96018 389-490, limits assumed, looked up): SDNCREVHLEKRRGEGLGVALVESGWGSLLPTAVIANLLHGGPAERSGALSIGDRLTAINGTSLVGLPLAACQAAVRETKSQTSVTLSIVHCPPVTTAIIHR

LRRC7, Q96NW7 = target: T3, LRRC7, Q96NW7
T3 sequence (Q96NW7 1440-1537, limits assumed, looked up): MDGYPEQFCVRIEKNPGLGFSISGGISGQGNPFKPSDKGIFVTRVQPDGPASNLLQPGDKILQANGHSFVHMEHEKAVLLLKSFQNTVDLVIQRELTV

FRMPD2_3, Q68DX3 = target: FRMPD2_3, Q68DX3
Sequence of FRMPD2_3, Q68DX3 (Q68DX3 1073-1166): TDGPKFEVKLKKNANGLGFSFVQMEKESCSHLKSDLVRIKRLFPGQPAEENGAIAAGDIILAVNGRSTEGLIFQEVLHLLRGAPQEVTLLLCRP

NHERF3_3, Q5T2W1 = target: T4, NHERF3_3, Q5T2W1
T4 sequence (Q5T2W1 238-333, limits assumed, looked up): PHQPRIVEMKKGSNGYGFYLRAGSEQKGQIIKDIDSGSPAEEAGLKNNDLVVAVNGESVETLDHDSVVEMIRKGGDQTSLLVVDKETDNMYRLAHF

LNX1_1, Q8TBB1 = target: LNX1_1, Q8TBB1
Sequence of LNX1_1, Q8TBB1 (Q8TBB1 261-371): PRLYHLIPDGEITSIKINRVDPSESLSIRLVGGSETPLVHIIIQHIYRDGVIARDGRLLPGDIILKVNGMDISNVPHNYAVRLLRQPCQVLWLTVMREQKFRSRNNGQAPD

TJP2_1, Q9UDY2 = target: TJP2_1, Q9UDY2
Sequence of TJP2_1, Q9UDY2 (Q9UDY2 24-128): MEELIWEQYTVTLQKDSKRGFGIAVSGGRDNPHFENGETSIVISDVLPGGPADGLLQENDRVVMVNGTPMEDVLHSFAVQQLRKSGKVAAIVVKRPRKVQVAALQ

Inadl_8, Q8NI35 = target: Inadl_8, Q8NI35
Sequence of Inadl_8, Q8NI35 (Q8NI35 1425-1530): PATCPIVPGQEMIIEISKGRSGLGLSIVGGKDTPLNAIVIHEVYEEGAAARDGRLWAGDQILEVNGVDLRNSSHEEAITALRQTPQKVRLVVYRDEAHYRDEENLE

Inadl_4, Q8NI35 = target: Inadl_4, Q8NI35
Sequence of Inadl_4, Q8NI35 (Q8NI35 547-651): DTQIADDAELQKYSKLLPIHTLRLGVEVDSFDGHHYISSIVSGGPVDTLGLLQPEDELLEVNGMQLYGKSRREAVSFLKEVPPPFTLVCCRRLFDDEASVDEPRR

NHERF4_2, Q86UT5 = target: NHERF4_2, Q86UT5
Sequence of NHERF4_2, Q86UT5 (Q86UT5 220-308): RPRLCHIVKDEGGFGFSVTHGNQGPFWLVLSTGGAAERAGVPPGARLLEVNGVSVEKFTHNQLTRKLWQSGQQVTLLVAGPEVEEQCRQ

FRMPD3, Q5JV73 = target: FRMPD3, Q5JV73
Sequence of FRMPD3, Q5JV73 (Q5JV73 12-100): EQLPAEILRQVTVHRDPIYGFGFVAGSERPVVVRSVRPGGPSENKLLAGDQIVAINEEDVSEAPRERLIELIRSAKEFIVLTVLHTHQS

APBA1_2, Q02410 = target: T5, APBA1_2, Q02410
T5 sequence (Q02410 742-832, limits assumed, looked up): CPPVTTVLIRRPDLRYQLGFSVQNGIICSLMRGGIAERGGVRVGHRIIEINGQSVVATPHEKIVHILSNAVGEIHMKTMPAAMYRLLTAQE

GOPC, Q9HD26 = target: GOPC, Q9HD26
RHPN1, Q8TCX5 = target: T6, RHPN1, Q8TCX5
T6 sequence (Q8TCX5 508-602, limits assumed, looked up): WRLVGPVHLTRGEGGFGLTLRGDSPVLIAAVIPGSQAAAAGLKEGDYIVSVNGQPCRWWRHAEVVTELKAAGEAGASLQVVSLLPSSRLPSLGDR

GRIP2_6, Q9C0E4 = target: GRIP2_6, Q9C0E4
Sequence of GRIP2_6, Q9C0E4 (Q9C0E4 648-740): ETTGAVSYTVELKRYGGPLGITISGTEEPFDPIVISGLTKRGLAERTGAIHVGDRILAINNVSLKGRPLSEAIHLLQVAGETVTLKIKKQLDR

SHANK1, Q9Y566 = target: T7, SHANK1, Q9Y566
T7 sequence (Q9Y566 658-767, limits assumed, looked up): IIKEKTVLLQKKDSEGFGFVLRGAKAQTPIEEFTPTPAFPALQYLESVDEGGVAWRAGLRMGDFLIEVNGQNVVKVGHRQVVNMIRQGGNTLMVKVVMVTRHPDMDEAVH

LIMK2, P53671 = target: LIMK2, P53671
Sequence of LIMK2, P53671 (P53671 143-248): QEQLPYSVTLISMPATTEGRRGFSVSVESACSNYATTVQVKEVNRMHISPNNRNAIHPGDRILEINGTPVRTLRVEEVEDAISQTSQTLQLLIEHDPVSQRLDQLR

NHERF3_1, Q5T2W1 = target: T8, NHERF3_1, Q5T2W1
T8 sequence (Q5T2W1 4-100, limits assumed, looked up): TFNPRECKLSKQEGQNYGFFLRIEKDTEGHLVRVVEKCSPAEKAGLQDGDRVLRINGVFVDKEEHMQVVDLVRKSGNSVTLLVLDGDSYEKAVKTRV

NHERF2_2, Q15599 = target: NHERF2_2, Q15599
Sequence of NHERF2_2, Q15599 (Q15599 142-238): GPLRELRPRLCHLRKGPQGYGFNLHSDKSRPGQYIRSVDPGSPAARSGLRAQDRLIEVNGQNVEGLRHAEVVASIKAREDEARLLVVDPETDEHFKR

GRIP2_3, Q9C0E4 = target: GRIP2_3, Q9C0E4
Sequence of GRIP2_3, Q9C0E4 (Q9C0E4 238-339): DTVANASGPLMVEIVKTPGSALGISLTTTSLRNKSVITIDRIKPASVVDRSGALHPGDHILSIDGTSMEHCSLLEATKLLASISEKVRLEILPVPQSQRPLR

DLG4_1, P78352 = target: DLG4_1, P78352
Sequence of DLG4_1, P78352 (P78352 62-152): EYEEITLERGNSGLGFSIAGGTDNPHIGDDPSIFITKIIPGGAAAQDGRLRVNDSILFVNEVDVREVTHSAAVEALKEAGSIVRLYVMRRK

DLG3_3, Q92796 = target: T9, DLG3_3, Q92796
T9 sequence (Q92796 374-475, limits assumed, looked up): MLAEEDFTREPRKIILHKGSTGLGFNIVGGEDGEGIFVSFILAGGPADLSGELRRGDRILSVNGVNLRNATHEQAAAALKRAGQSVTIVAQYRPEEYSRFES

TJP3_3, O95049 = target: T10, TJP3_3, O95049
T10 sequence (O95049 375-456, limits assumed, looked up): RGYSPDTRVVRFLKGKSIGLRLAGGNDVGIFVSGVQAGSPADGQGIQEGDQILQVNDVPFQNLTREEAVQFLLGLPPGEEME

LNX2_3, Q8N448 = target: T11, LNX2_3, Q8N448
T11 sequence (Q8N448 463-564, limits assumed, looked up): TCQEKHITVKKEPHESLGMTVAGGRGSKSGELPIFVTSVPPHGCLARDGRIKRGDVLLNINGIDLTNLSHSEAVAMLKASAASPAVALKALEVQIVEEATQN

CASK, O14936 = target: CASK, O14936
Sequence of CASK, O14936 (O14936 487-570): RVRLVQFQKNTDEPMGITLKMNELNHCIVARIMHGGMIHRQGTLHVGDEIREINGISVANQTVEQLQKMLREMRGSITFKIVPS

[1] = plain residues with an end cap or a label only (N-terminal biotin on a linker: ado-ado)
[2] = plain residues with an end cap or a label only (N-terminal biotin on a linker: ttds)
[3] = plain residues with an end cap or a label only (N-terminal biotin on a linker: ahx)

Sequence of DLG1_3, Q12959 (Q12959 457-571): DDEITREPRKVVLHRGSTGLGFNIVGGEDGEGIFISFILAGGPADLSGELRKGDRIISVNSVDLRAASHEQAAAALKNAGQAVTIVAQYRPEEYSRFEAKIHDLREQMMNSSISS

## SVVSERISSV [HTR2C, P28335]
DLG1_3, Q12959; [1]
  pKd: below the threshold
PDZD7_3, Q9H5P4; [1]
  pKd: 4.26
LAP2, Q96RT1; [1]
  pKd: below the threshold
APBA3_1, O96018; [1]
  pKd: below the threshold
LRRC7, Q96NW7; [1]
  pKd: below the threshold
FRMPD2_3, Q68DX3; [1]
  pKd: below the threshold
NHERF3_3, Q5T2W1; [1]
  pKd: below the threshold
LNX1_1, Q8TBB1; [1]
  pKd: below the threshold
TJP2_1, Q9UDY2; [1]
  pKd: below the threshold
Inadl_8, Q8NI35; [1]
  pKd: 5.14
Inadl_4, Q8NI35; [1]
  pKd: below the threshold
NHERF4_2, Q86UT5; [1]
  pKd: below the threshold
FRMPD3, Q5JV73; [1]
  pKd: below the threshold
APBA1_2, Q02410; [1]
  pKd: 3.87
GOPC, Q9HD26; [1]
  pKd: below the threshold
RHPN1, Q8TCX5; [1]
  pKd: 4.65
GRIP2_6, Q9C0E4; [1]
  pKd: below the threshold
SHANK1, Q9Y566; [1]
  pKd: below the threshold
LIMK2, P53671; [1]
  pKd: below the threshold
NHERF3_1, Q5T2W1; [1]
  pKd: below the threshold
NHERF2_2, Q15599; [1]
  pKd: below the threshold
GRIP2_3, Q9C0E4; [1]
  pKd: below the threshold
DLG4_1, P78352; [1]
  pKd: 3.94
DLG3_3, Q92796; [1]
  pKd: below the threshold
TJP3_3, O95049; [1]
  pKd: below the threshold
LNX2_3, Q8N448; [1]
  pKd: below the threshold
CASK, O14936; [1]
  pKd: below the threshold

## SEKHFRETEV [HTLV1-TAX1, P03409]
DLG1_3, Q12959; [2]
  pKd: 5.22
PDZD7_3, Q9H5P4; [2]
  pKd: 4.82
LAP2, Q96RT1; [2]
  pKd: 4.99
APBA3_1, O96018; [2]
  pKd: below the threshold
LRRC7, Q96NW7; [2]
  pKd: 4.69
FRMPD2_3, Q68DX3; [2]
  pKd: 3.77
NHERF3_3, Q5T2W1; [2]
  pKd: below the threshold
LNX1_1, Q8TBB1; [2]
  pKd: 3.89
TJP2_1, Q9UDY2; [2]
  pKd: below the threshold
Inadl_8, Q8NI35; [2]
  pKd: 3.86
Inadl_4, Q8NI35; [2]
  pKd: below the threshold
NHERF4_2, Q86UT5; [2]
  pKd: below the threshold
FRMPD3, Q5JV73; [2]
  pKd: below the threshold
APBA1_2, Q02410; [2]
  pKd: 3.56
GOPC, Q9HD26; [2]
  pKd: below the threshold
RHPN1, Q8TCX5; [2]
  pKd: 4.08
GRIP2_6, Q9C0E4; [2]
  pKd: below the threshold
SHANK1, Q9Y566; [2]
  pKd: below the threshold
LIMK2, P53671; [2]
  pKd: below the threshold
NHERF3_1, Q5T2W1; [2]
  pKd: 4.71
NHERF2_2, Q15599; [2]
  pKd: below the threshold
GRIP2_3, Q9C0E4; [2]
  pKd: below the threshold
DLG4_1, P78352; [2]
  pKd: 5.22
DLG3_3, Q92796; [2]
  pKd: 5.34
TJP3_3, O95049; [2]
  pKd: below the threshold
LNX2_3, Q8N448; [2]
  pKd: below the threshold
CASK, O14936; [2]
  pKd: below the threshold

## VNKVWDQSSV [CIT, O14578]
DLG1_3, Q12959; [2]
  pKd: 3.49
PDZD7_3, Q9H5P4; [2]
  pKd: below the threshold
LAP2, Q96RT1; [2]
  pKd: 4.04
APBA3_1, O96018; [2]
  pKd: below the threshold
LRRC7, Q96NW7; [2]
  pKd: below the threshold
FRMPD2_3, Q68DX3; [2]
  pKd: below the threshold
NHERF3_3, Q5T2W1; [2]
  pKd: below the threshold
LNX1_1, Q8TBB1; [2]
  pKd: below the threshold
TJP2_1, Q9UDY2; [2]
  pKd: below the threshold
Inadl_8, Q8NI35; [2]
  pKd: 4
Inadl_4, Q8NI35; [2]
  pKd: below the threshold
NHERF4_2, Q86UT5; [2]
  pKd: below the threshold
FRMPD3, Q5JV73; [2]
  pKd: below the threshold
APBA1_2, Q02410; [2]
  pKd: 3.49
GOPC, Q9HD26; [2]
  pKd: 3.77
RHPN1, Q8TCX5; [2]
  pKd: 3.82
GRIP2_6, Q9C0E4; [2]
  pKd: below the threshold
SHANK1, Q9Y566; [2]
  pKd: 3.57
LIMK2, P53671; [2]
  pKd: below the threshold
NHERF3_1, Q5T2W1; [2]
  pKd: below the threshold
NHERF2_2, Q15599; [2]
  pKd: below the threshold
GRIP2_3, Q9C0E4; [2]
  pKd: below the threshold
DLG4_1, P78352; [2]
  pKd: below the threshold
DLG3_3, Q92796; [2]
  pKd: 3.7
TJP3_3, O95049; [2]
  pKd: below the threshold
LNX2_3, Q8N448; [2]
  pKd: below the threshold
CASK, O14936; [2]
  pKd: below the threshold

## EKLSSIESDV [GRIN2B, Q13224]
DLG1_3, Q12959; [3]
  pKd: below the threshold
PDZD7_3, Q9H5P4; [3]
  pKd: 3.77
LAP2, Q96RT1; [3]
  pKd: 4.26
APBA3_1, O96018; [3]
  pKd: below the threshold
LRRC7, Q96NW7; [3]
  pKd: 3.63
FRMPD2_3, Q68DX3; [3]
  pKd: below the threshold
NHERF3_3, Q5T2W1; [3]
  pKd: below the threshold
LNX1_1, Q8TBB1; [3]
  pKd: 4.13
TJP2_1, Q9UDY2; [3]
  pKd: below the threshold
Inadl_8, Q8NI35; [3]
  pKd: below the threshold
Inadl_4, Q8NI35; [3]
  pKd: below the threshold
NHERF4_2, Q86UT5; [3]
  pKd: below the threshold
FRMPD3, Q5JV73; [3]
  pKd: below the threshold
APBA1_2, Q02410; [3]
  pKd: below the threshold
GOPC, Q9HD26; [3]
  pKd: 3.63
RHPN1, Q8TCX5; [3]
  pKd: 4.73
GRIP2_6, Q9C0E4; [3]
  pKd: below the threshold
SHANK1, Q9Y566; [3]
  pKd: below the threshold
LIMK2, P53671; [3]
  pKd: below the threshold
NHERF3_1, Q5T2W1; [3]
  pKd: below the threshold
NHERF2_2, Q15599; [3]
  pKd: below the threshold
GRIP2_3, Q9C0E4; [3]
  pKd: below the threshold
DLG4_1, P78352; [3]
  pKd: 4.37
DLG3_3, Q92796; [3]
  pKd: below the threshold
TJP3_3, O95049; [3]
  pKd: below the threshold
LNX2_3, Q8N448; [3]
  pKd: below the threshold
CASK, O14936; [3]
  pKd: below the threshold

## HIVEALETDV [PBK, Q96KB5]
DLG1_3, Q12959; [2]
  pKd: below the threshold
PDZD7_3, Q9H5P4; [2]
  pKd: 4.6
LAP2, Q96RT1; [2]
  pKd: 5.04
APBA3_1, O96018; [2]
  pKd: below the threshold
LRRC7, Q96NW7; [2]
  pKd: 3.91
FRMPD2_3, Q68DX3; [2]
  pKd: below the threshold
NHERF3_3, Q5T2W1; [2]
  pKd: below the threshold
LNX1_1, Q8TBB1; [2]
  pKd: 4.51
TJP2_1, Q9UDY2; [2]
  pKd: below the threshold
Inadl_8, Q8NI35; [2]
  pKd: below the threshold
Inadl_4, Q8NI35; [2]
  pKd: below the threshold
NHERF4_2, Q86UT5; [2]
  pKd: below the threshold
FRMPD3, Q5JV73; [2]
  pKd: below the threshold
APBA1_2, Q02410; [2]
  pKd: 4.27
GOPC, Q9HD26; [2]
  pKd: below the threshold
RHPN1, Q8TCX5; [2]
  pKd: 4.91
GRIP2_6, Q9C0E4; [2]
  pKd: below the threshold
SHANK1, Q9Y566; [2]
  pKd: below the threshold
LIMK2, P53671; [2]
  pKd: below the threshold
NHERF3_1, Q5T2W1; [2]
  pKd: below the threshold
NHERF2_2, Q15599; [2]
  pKd: 3.97
GRIP2_3, Q9C0E4; [2]
  pKd: below the threshold
DLG4_1, P78352; [2]
  pKd: 5.11
DLG3_3, Q92796; [2]
  pKd: 3.88
TJP3_3, O95049; [2]
  pKd: below the threshold
LNX2_3, Q8N448; [2]
  pKd: below the threshold
CASK, O14936; [2]
  pKd: below the threshold
